Data reported in article PMC8059062.

Columns and labels:
Assay in all cases: co-purification after bacterial coexpression, molar ratio by rpHPLC; (Ca2+)4-CaM copurified with His-GST-tagged FGF NTD fragments; complexes separated on a C-18 column, ratio from peak areas at 220 nm
[1] = target: FGF11ANTD (FGF11A N-terminal domain, aa 1-68) (human) (UniProt Q92914)
[2] = target: FGF12ANTD (FGF12A N-terminal domain, aa 1-70) (human) (UniProt P61328)
[3] = target: FGF13ANTD (FGF13A N-terminal domain, aa 1-66) (human) (UniProt Q92913)
Chain of FGF13ANTD (FGF13A N-terminal domain, aa 1-66) (human) (Q92913 other isoform, or with tags, fused parts or gaps): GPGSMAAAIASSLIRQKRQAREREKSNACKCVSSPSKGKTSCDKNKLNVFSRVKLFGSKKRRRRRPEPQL

[4] = target: FGF14ANTD (FGF14A N-terminal domain, aa 1-68) (human) (UniProt Q92915)
Chain of FGF14ANTD (FGF14A N-terminal domain, aa 1-68) (human) (Q92915 other isoform, or with tags, fused parts or gaps): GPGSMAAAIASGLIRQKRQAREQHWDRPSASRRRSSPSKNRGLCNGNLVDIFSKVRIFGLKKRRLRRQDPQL

Measured: stoichiometry N ((Ca2+)4-CaM per FGF NTD)

Chain of FGF12ANTD (FGF12A N-terminal domain, aa 1-70) (human) (P61328 other isoform, or with tags, fused parts or gaps): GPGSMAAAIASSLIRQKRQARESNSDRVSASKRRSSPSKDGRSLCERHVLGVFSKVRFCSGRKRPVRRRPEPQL
Chain of FGF11ANTD (FGF11A N-terminal domain, aa 1-68) (human) (Q92914 other isoform, or with tags, fused parts or gaps): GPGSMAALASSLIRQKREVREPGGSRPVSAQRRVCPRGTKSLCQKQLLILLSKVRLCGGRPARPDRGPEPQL

calmodulin, wild type, full-length (aa 1-148) (from UniProt P0DP23 1-149) (natural protein)
1: all assays above
